Assay results: publication PMC4599368 (Cell reports, 2015)

B1: EBOV NP residues 25–457 ([change]) (domain or fragment)
chain: LTAGLSVQQGIVRQRVIPVYQVNNLEEICQLIIQAFEAGVDFQESADSFLLMLCLHHAYQGDYKLFLESGAVKYLEGHGFRFEVKKRDGVKRLEELLPAVSSGKNIKRTLAAMPEEETTEANAGQFLSFASLFLPKLVVGEKACLEKVQRQIQVHAEQGLIQYPTAWQSVGHMMVIFRLMRTNFLIKFLLIHQGMHMVAGHDANDAVISNSVAQARFSGLLIVKTVLDHILQKTERGVRLHPLARTAKVKNEVNSFKAALSSLAKHGEYAPFARLLNLSGVNNLEHGLFPQLSAIALGVATAHGSTLAGVNVGEQYQQLREAATEAEKQLQQYAESRELDHLGLDDQEKKILMNFHQKKNEISFQQTNAMVTLRKERLAKLTEAITAASLPKTSGHYDDDDDIPFPGPINDDDNPGHQDDDPTDSQDTTIPDV
B2: EBOV VP35 1–168 (domain or fragment)
chain: MTTRTKGRGHTAATTQNDRMPGPELSGWISEQLMTGRIPVSDIFCDIENNPGLCYASQMQQTKPNPKTRNSQTQTDPICNHSFEEVVQTLASLATVVQQQTIASESLEQRITSLENGLKPVYDMAKTISSLNRVCAEMVAKYDLLVMTTGRATATAAATEAYWAEHGQ

Key:
[1] = biological target: B1; assay: ITC
SEC = biological target: the molecule itself; assay: SEC

| Binder | fold reduction in binding affinity relative to NPBP [1] [fold] | further results |
| --- | --- | --- |
| GWISEQLMTGRIPVSDIFCDIE [EBOV VP35 peptide 27–48] | 6.5 | – |
| MTTRTKGRGHTAATTQNDRMPGPELSGWISEQLMTGRIPVSDIFC [EBOV VP35 peptide 1–45] | 1.5 | – |
| B1 | – | binding result (SEC): binds |
| B2 | – | binding result [1]: binds |
